According to patent US9540424B2, “Serum albumin binding molecules” (BRISTOL-MYERS SQUIBB COMPANY, priority 2010, dated 2017):

Tests used:
RhSA = RhSA (Macaca mulatta, UniProt Q28522); assay: Biacore kinetics of SABAs on immobilized serum albumin: RhSA; assay type: binding, rhesus; settings: for Kd: target RhSA
Protocol: (§1) In addition, binding to albumin was carried out under various pH conditions ranging from pH 5.5 to pH 7.4.

MuSA = MuSA (Mus musculus, UniProt P07724); assay: Biacore kinetics of SABAs on immobilized serum albumin: MuSA; assay type: binding
[1] = Half-life of HSA and of SABA1-4 with or without HSA in mice (ELISA, WinNonlin); assay type: in vivo, Ncr nude female mice; settings: for PK (T½) Mice: co-injected with HSA (3-4 molar excess), tail vein; for half-life in mice plasma: injected without HSA; for increase in half life when co-injected with HSA: with HSA vs without HSA, mice
Protocol: The pharmacokinetic parameters of each Adnectin™ were determined using non-compartmental modeling with WinNonlin software.

HSA = HSA (Homo sapiens, UniProt P02768); settings: for Resistant to pH 7.4→5.5?: binding to HSA from pH 7.4 down to pH 5.5, symbols not defined
Protocol: as §1

[2] = Analytical size exclusion chromatography (SEC) of SABAs; assay type: physicochemical; settings: midscaled material
Protocol: Size exclusion chromatography (SEC) was performed on the SABAs resulting from the HTPP. SEC of HTPP derived material was performed using a Superdex 200 5/150 or Superdex 75 5/150 column (GE Healthcare) on an Agilent 1100 or 1200 HPLC system with UV detection at A214 nm and A280 nm and with fluorescence detection (excitation=280 nm, emission=350 nm). A buffer of 100 mM sodium sulfate, 100 mM sodium phosphate, 150 mM sodium chloride, pH 6.8 at appropriate flow rate of the SEC column employed. Gel filtration standards (Bio-Rad Laboratories, Hercules, Calif.) were used for molecular weight calibration.
Midscale expression and purification yielded highly pure and active Adnectins™ that were expressed in a soluble form and purified from the soluble fraction of the bacterial cytosol.
Standard size exclusion chromatography (SEC) was performed on the candidate SABAs resulting from the midscale process. SEC of midscaled material was performed using a Superdex 200 10/30 or on a Superdex 75 10/30 column (GE Healthcare) on an Agilent 1100 or 1200 HPLC system with UV detection at A214 nm and A280 nm and with fluorescence detection (excitation=280 nm, emission=350 nm). A buffer of 100 mM sodium sulfate, 100 mM sodium phosphate, 150 mM sodium chloride, pH 6.8 at appropriate flow rate of the SEC column employed. Gel filtration standards (Bio-Rad Laboratories, Hercules, Calif.) were used for molecular weight calibration.

Human serum albumin = molecular target: T1, Human serum albumin (Homo sapiens, UniProt P02768); assay: SPR (ProteOn XPR36) binding of SABA-neuropeptide fusions to Human Serum Albumin; settings: 25° C., average of two experiments
T1 construct: purchased Novozymes Recombumin
Protocol: Surface Plasmon Resonance (SPR) is a direct binding technique by which molecular interactions can be observed in real time. For these experiments, SPR binding studies were performed using a ProteOn XPR36 instrument (BioRad Laboratories). The running buffer, phosphate buffered saline 0.05% Tween 20 pH 7.4, was purchased from Teknova (cat #P1192) and all experiments were run at 25° C. Human serum albumin was directly immobilized on a BioRad GLC chip via amine coupling as per manufacturer's guidelines using amine coupling reagents purchased from BioRad Laboratories. Human serum albumin was purchased from Novozymes (Recombumin™). About 5000 resonance units (RU) of human serum albumin were immobilized onto 4 separate lanes of the GLC chip surface. For each analyte, five concentrations ranging from 15.6 nM to 250 nM were injected over the surface at 30 μl/min for 240 seconds. The dissociation was monitored for 600 seconds. The surface was regenerated with 100 mM HCl. The resultant data were fitted to a Langumuir 1:1 binding model using the ProteOn Manager Software. The experiment was repeated with a different concentration range. In this second experiment, 5 concentrations ranging from 500 nM to 32 nM were injected over the surfaces, and the data analyzed as above. The KD is the disassociation constant. Smaller numbers indicate tighter binding to serum albumin. Molecules covalently attached to SABA that bind to serum albumin display longer in vivo pharmokinetic half-lives, as described earlier with respect to SABA-FGF-21 fusions.

[3] = Pharmacokinetics of His-tagged FGF21 and SABA-FGF21 fusions in monkeys; assay type: in vivo, cynomolgus monkeys; settings: monkeys
Protocol: Various in vivo studies were conducted in mice and monkeys to characterize the pharmacokinetics of His-tagged FGF21 and SABA1-FGF21v1. An ELISA-based ligand binding assay was used to measure the His-tagged FGF21 and SABA1-FGF21v1 in all mouse and monkey plasma samples.
Following subcutaneous administration, His-tagged FGF21 was well absorbed.
Following subcutaneous administration, SABA1-FGF21v1 was well absorbed.

[4] = intravenous, His-tagged FGF21 0.5 mg/kg, SABA1-FGF21v1 0.08 mg/kg

Sequence of RhSA (Q28522 17-600): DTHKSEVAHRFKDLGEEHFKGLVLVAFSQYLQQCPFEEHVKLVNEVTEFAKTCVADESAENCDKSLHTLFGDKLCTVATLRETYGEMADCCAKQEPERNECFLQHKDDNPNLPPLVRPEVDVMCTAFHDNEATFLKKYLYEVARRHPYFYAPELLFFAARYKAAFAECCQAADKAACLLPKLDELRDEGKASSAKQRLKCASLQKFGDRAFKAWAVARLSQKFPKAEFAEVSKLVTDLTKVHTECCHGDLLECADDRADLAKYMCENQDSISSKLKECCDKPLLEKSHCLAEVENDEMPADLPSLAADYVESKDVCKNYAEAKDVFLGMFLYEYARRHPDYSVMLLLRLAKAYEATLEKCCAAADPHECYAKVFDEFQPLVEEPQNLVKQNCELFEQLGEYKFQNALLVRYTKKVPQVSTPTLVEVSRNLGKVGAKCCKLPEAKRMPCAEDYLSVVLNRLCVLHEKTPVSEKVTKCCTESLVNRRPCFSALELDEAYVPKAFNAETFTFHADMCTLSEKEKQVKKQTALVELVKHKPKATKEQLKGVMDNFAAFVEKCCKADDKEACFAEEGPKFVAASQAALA
Sequence of MuSA (P07724 25-608): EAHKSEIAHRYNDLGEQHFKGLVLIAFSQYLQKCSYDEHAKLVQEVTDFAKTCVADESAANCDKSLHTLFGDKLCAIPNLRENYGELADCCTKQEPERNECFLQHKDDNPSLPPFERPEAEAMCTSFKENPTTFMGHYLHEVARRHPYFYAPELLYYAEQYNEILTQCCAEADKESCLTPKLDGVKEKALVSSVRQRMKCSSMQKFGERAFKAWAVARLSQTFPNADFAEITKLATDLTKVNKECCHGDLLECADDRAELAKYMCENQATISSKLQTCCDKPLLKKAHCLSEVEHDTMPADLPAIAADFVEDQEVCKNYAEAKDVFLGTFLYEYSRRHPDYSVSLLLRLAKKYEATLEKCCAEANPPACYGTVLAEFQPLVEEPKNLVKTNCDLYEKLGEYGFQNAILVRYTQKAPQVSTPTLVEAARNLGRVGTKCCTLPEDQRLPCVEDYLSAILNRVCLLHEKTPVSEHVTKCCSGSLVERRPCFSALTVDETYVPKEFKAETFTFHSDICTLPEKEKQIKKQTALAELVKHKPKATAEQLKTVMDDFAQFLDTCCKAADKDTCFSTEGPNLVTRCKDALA

B1: SABA4.1: HSA binding clone of SABA4 (protein)
chain: MGVSDVPRDLEMVAATPTSLLISWEDDSYYSRYYRITYGETGGNSPVQEFTVPSDLYTATISGLKPGVDYTITVYAVTYDVTDLIMHEPISINYRTEIDKPSQHHHHHH
modifications: His6 tag
Comments: binding affinity for RhSA (RhSA): Poor binding affinity for RhSA. | cross reaction with RhSA (RhSA): cross reacted | cross reaction with MuSA (MuSA): did not cross react | PK (T½) Mice [1]: 4.6 h | half-life in mice plasma [1]: 0.66 h | increase in half life when co-injected with HSA [1]: ~7 fold | Comments: decrease in KD observed at pH <6.0 (HSA; pH <6.0): >2-fold decrease in KD observed at

B2: SABA2: SABA core sequence from PROfusion; in Table 5 stands for SABA2.1 (protein)
chain: EVVAATPTSLLISWPKYDKTGHYYRITYGETGGNSPVQEFTVPTRQTTATISGLKPGVDYTITVYAVSKDDYYPHEHRPISINYRT
Kd (RhSA): 63.6 nM | Kd (HSA): 33.8 nM | Resistant to pH 7.4→5.5? (HSA): pH sensitive

B3: SABA2.1: His-tagged SABA2 sequence (protein)
chain: MGVSDVPRDLEVVAATPTSLLISWPKYDKTGHYYRITYGETGGNSPVQEFTVPTRQTTATISGLKPGVDYTITVYAVSKDDYYPHEHRPISINYRTEIDKPSQHHHHHH
modifications: His6 tag
SEC Dimer (%) [2]: 9% | SEC Monomer (%) [2]: 91% | cross reaction with RhSA (RhSA): cross reacted | cross reaction with MuSA (MuSA): did not cross react | PK (T½) Mice [1]: 2.8 h | half-life in mice plasma [1]: 0.24 h | increase in half life when co-injected with HSA [1]: ~12 fold | Comments: binding in dependence of pH (HSA): Loss of binding at pH ≦6.5

B4: SABA1: serum albumin binding 10Fn3 core sequence, SEQ ID NO: 4; in Table 5 stands for SABA1.1 (protein)
chain: EVVAATPTSLLISWHSYYEQNSYYRITYGETGGNSPVQEFTVPYSQTTATISGLKPGVDYTITVYAVYGSKYYYPISINYRT
Kd (RhSA): 778 nM | Kd (HSA): 47.2 nM

B5: SABA1-APPv7: SEQ ID NO: 364; SABA1.7-(ED)5G-Cys conjugated to Maleimide-PEG20-PP-CONH2 (conjugate)
chain: MGVSDVPRDLEVVAATPTSLLISWHSYYEQNSYYRITYGETGGNSPVQEFTVPYSQTTATISGLKPGVDYTITVYAVYGSKYYYPISINYRTEIEDEDEDEDEDGC
modifications: Maleimide-PEG20-PP-CONH2 conjugated via Cys
Koff (1/s) (Human serum albumin): 1.42 10^−4 1/s | Kon (1/Ms) (Human serum albumin): 7.88 10^3 1/Ms

B6: SABA1-PYYv7: SEQ ID NO: 344; SABA1.7-(ED)5G-Cys conjugated to Maleimide-PEG20-PYY-CONH2 (conjugate)
chain: B5 chain
modifications: Maleimide-PEG20-PYY-CONH2 conjugated via Cys
Koff (1/s) (Human serum albumin): 2.08 10^−4 1/s | Kon (1/Ms) (Human serum albumin): 9.29 10^3 1/Ms

B7: SABA4: SABA core with a scaffold mutation; same BC, DE, FG loops as SABA5; in Table 5 stands for SABA4.1 (protein)
chain: EMVAATPTSLLISWEDDSYYSRYYRITYGETGGNSPVQEFTVPSDLYTATISGLKPGVDYTITVYAVTYDVTDLIMHEPISINYRT
Kd (RhSA): > 1000 nM | PK (T½) Mice [1]: 4.6 h | Kd (HSA): 412 nM | Resistant to pH 7.4→5.5? (HSA): pH sensitive

B8: SABA3: SABA core sequence from PROfusion; in Table 5 stands for SABA3.1 (protein)
chain: EVVAATPTSLLISWSNDGPGLSYYRITYGETGGNSPVQEFTVPSSQTTATISGLKPGVDYTITVYAVSYYTKKAYSAGPISINYRT
Kd (RhSA): 431 nM | Kd (HSA): 863 nM | Resistant to pH 7.4→5.5? (HSA): pH resistant binding to HSA down to pH 6.0

B9: FGF21-SABA1v1: fusion in which the SABA moiety is at the C-terminus of FGF21, SEQ ID NO: 171; 300 aa; DNA SEQ ID NO: 180 (protein)
chain: MPIPDSSPLLQFGGQVRQRYLYTDDAQQTEAHLEIREDGTVGGAADQSPESLLQLKALKPGVIQILGVKTSRFLCQRPDGALYGSLHFDPEACSFRELLLEDGYNVYQSEAHGLPLHLPGNKSPHRDPAPRGPARFLPLPGLPPALPEPPGILAPQPPDVGSSDPLSMVGPSQGRSPSYASGGSGSGSGSGSGSGSGVSDVPRDLEVVAATPTSLLISWHSYYEQNSYYRITYGETGGNSPVQEFTVPYSQTTATISGLKPGVDYTITVYAVYGSKYYYPISINYRTEIDKPSQHHHHHH
increase of t1/2 compared to His-tagged FGF21 [3]: ~27 fold | CL (total body plasma clearance, CLTp) [3, 4]: 1.2 mL/h/kg | T½ (terminal half-life) [3, 4]: 50.3 h | Vdss (steady-state volume of distribution, Vss) [3, 4]: 0.06 L/kg
